Source: patent US20100050279

Biological target: T1, FLPo (codon-optimized FLPe recombinase) (UniProt P03870)
T1 sequence: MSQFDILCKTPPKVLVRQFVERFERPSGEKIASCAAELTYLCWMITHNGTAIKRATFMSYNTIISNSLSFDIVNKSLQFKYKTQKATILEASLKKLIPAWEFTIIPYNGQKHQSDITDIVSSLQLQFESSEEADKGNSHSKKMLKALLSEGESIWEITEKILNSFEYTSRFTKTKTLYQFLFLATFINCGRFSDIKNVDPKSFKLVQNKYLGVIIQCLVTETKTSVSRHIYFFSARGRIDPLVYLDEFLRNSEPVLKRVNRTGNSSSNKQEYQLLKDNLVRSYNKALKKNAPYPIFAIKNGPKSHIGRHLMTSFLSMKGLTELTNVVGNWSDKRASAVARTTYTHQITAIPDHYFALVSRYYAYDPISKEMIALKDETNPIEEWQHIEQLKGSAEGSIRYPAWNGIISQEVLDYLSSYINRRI
Assay: cell_activity

Q: For “FRT (FLP recognition site) in ROSA26 PLAP reporter”, which activity (% of hygroR colonies recombined) (stable integration, 7 of 14 colonies) is on record?
A: 50

Q: What about the activity (transient, mouse FLP reporter ES cells, 10 ug circular plasmid, 5 days, value stated as nearly 75%, nearly 20-fold over FLPe) of the same substance?
A: 75%
